# Molecular target: SARS-CoV-2 RBD (Wuhan-1) RBD-FC fusion protein (SARS-CoV-2, UniProt P0DTC2)
# Test: SPR
# Details: both partners purified
row,Binder,binding result
1,"CB6 (antibody, V domains shown, source: produced and purified as previously described (29)) VH: EVQLVESGGGLVQPGGSLRLSCAASGFTVSSNYMSWVRQAPGKGLEWVSVIYSGGSTFYADSVKGRFTISRDNSMNTLFLQMNSLRAEDTAVYYCARVLPMYGDYLDYWGQGTLVTVSS VL: not shown",binds
2,"RGN10933 (antibody, V domains shown) VH: QVQLVESGGGLVKPGGSLRLSCAASGFTFSDYYMSWIRQAPGKGLEWVSYITYSGSTIYYADSVKGRFTISRDNAKSSLYLQMNSLRAEDTAVYYCARDRGTTMVPFDYWGQGTLVTVSS VL: DIQMTQSPSSLSASVGDRVTITCQASQDITNYLNWYQQKPGKAPKLLIYAASNLETGVPSRFSGSGSGTDFTFTISGLQPEDIATYYCQQYDNLPLTFGGGTKVEIK",binds
3,"RGN10987 (antibody, V domains shown) VH: QVQLVESGGGVVQPGRSLRLSCAASGFTFSNYAMYWVRQAPGKGLEWVAVISYDGSNKYYADSVKGRFTISRDNSKNTLYLQMNSLRTEDTAVYYCASGSDYGDYLLVYWGQGTLVTVSS VL: QSALTQPASVSGSPGQSITISCTGTSSDVGGYNYVSWYQQHPGKAPKLMIYDVSKRPSGVSNRFSGSKSGNTASLTISGLQSEDEADYYCNSLTSISTWVFGGGTKLTVL",binds

# Source: PMC8212047 (Frontiers in Immunology, 2021)
